Data as given in patent US20220363763A1 (ABL BIO, published 2022).

T1: recombinant his-tag human LAG3-ECD protein (human, UniProt P18627 23-450)
T1 construct: extracellular domain; not shown: his tag
T1 sequence (looked up): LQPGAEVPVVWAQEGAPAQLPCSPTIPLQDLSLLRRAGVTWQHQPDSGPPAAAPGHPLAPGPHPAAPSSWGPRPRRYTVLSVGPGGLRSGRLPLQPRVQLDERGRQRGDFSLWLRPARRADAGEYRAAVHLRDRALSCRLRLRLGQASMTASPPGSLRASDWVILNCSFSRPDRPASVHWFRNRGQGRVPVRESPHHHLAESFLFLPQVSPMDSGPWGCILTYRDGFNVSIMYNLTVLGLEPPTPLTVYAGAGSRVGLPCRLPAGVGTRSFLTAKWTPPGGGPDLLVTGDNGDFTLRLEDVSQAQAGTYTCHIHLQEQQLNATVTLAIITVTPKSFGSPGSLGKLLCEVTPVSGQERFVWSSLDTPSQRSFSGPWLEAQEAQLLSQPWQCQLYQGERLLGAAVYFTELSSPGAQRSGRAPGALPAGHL


Key:
[1] = molecular target: T1, recombinant his-tag human LAG3-ECD …; experiment: SPR Biacore T200, antibody captured by anti-human Fc, LAG3-ECD-his injected
Description: The binding of the S20, S24, S27, S31, S87, S119, S120, S128, S136, S161 and T99 antibodies to recombinant his-tag human LAG3-ECD protein was examined by Biacore T200 using a capture method. Anti-LAG3 antibodies were captured using anti-human Fc antibody. The anti-human Fc antibody was coated on chip. Serial concentrations of his-tag human LAG3-ECD protein (0-4 nM) were injected over capture antibodies at the flow rate of 30 μl/min. The dissociation phase was 900 s or 550 s. The Biacore results for the anti-LAG3 antibodies have shown that these anti-LAG3 antibodies are high affinity binder to human LAG3.

[2] = molecular target: T2, human PD-L1 (construct not stated) (human, UniProt Q9NZQ7 19-239, limits assumed); experiment: SPR Biacore, affinity ranking
T2 construct: also called B7-H1 (PD-L1); PD-L1 protein

[3] = molecular target: T3, human PD-L1-his taq protein (human, UniProt Q9NZQ7 19-239, limits assumed); experiment: SPR Biacore T200, antibody captured, PD-L1-his injected
T3 construct: also called recombinant PD-L1 protein; recombinant human PD-L1; not shown: his tag
Description: The binding of the humanized antibodies to recombinant PD-L1 protein (human PD-L1-his taq) was tested by BIACORE™ using a capture method. The HL1210-3 mouse mAb were captured using anti-mouse Fc antibody coated on a CM5 chip. A series dilution of human PD-L1-his taq protein was injected over captured antibody for 3 mins at a flow rate of […]. The antigen was allowed to dissociate for 900 s. All the experiments were carried out on a Biacore T200.

T3 sequence (Q9NZQ7 19-239 limits assumed): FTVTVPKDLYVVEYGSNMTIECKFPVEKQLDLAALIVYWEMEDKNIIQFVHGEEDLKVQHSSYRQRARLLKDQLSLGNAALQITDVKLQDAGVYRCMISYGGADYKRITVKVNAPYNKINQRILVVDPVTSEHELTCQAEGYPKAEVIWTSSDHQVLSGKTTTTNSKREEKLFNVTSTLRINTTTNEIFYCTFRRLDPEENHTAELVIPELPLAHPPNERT
T2 sequence (Q9NZQ7 19-239 limits assumed): as above

Binder	Kd [1] [nM]	koff [1] [s⁻¹]	kon [1] [M⁻¹ s⁻¹]	Kd [2] [nM]	koff [2] [s⁻¹]	kon [2] [M⁻¹ s⁻¹]	also measured
A1 (antibody, V domains shown) VH: EVQLVESGGGLVQPGGSLRLSCAASGFTFSSYDMSWVRQAPGKSLEWVATISDAGGYIYYRDSVKGRFTISRDNAKNSLYLQMNSLRDEDTAVYICARELLHRYALDYWGQGTTVTVSS VL: DIQMTQSPSSLSASVGDRVTITCKASQDVTPAVAWYQQKPGKAPKLLIYSTSSRYTGVPSRFSGSGSGTDFTFTISSLQPEDIATYYCQQHYTTPLTFGQGTKLEIK	–	–	–	1.36	0.000276	203000	–
B1 (antibody, V domains shown) VH: EVQLVESGGGLVQPGGSLRLSCAASGFTFSSYDMSWVRQAPGKSLEWVATISDAGGYIYYRDSVKGRFTISRDNAKNSLYLQMNSLRDEDTAVYICAREIFNRYALDYWGQGTTVTVSS VL: DIQMTQSPSSLSASVGDRVTITCKASQDVTPAVAWYQQKPGKAPKLLIYSTSSRYTGVPSRFSGSGSGTDFTFTISSLQPEDIATYYCQQHYTTPLTFGQGTKLEIK	–	–	–	1.6	0.000261	163000	–
Hu1210-28 (antibody, V domains shown, Hu1210 VH.5a x Vk.2a; human gamma 1 / kappa constant domains) VH: EVQLVESGGGLVQPGGSLRLSCAASGFTFSSYDMSWVRQAPGKGLEWVATISDGGGYIYYSDSVKGRFTISRDNAKNSLYLQMNSLRAEDTAVYICAREFGKRYALDYWGQGTLVTVSS VL: DIQMTQSPSSLSASVGDRVTITCKASQDVTPAVAWYQQKPGKAPKLLIYSTSSRYTGVPDRFTGSGSGTDFTLTISSLQPEDFATYYCQQHYTTPLTFGQGTKLEIKR	–	–	–	–	–	–	Kd [3]: 0.838 nM; koff [3]: 0.000108 s⁻¹; kon [3]: 129000 M⁻¹ s⁻¹
B3 (antibody, V domains shown) VH: EVQLVESGGGLVQPGGSLRLSCAASGFTFSSYDMSWVRQAPGKSLEWVATISDAGGYIYYRDSVKGRFTISRDNAKNSLYLQMNSLRDEDTAVYICAREFGKRYALDYWGQGTTVTVSS VL: DIQMTQSPSSLSASVGDRVTITCKAKQDVTPAVAWYQQKPGKAPKLLIYSTSSRYTGVPSRFSGSGSGTDFTFTISSLQPEDIATYYCMQHYTTPLTFGQGTKLEIK	–	–	–	2.49	0.000296	119000	–
C3 (antibody, V domains shown) VH: EVQLVESGGGLVQPGGSLRLSCAASGFTFSSYDMSWVRQAPGKSLEWVATISDAGGYIYYRDSVKGRFTISRDNAKNSLYLQMNSLRDEDTAVYICARELHFRYALDYWGQGTTVTVSS VL: DIQMTQSPSSLSASVGDRVTITCKASQDVTPAVAWYQQKPGKAPKLLIYSTSSRYTGVPSRFSGSGSGTDFTFTISSLQPEDIATYYCQQHYTTPLTFGQGTKLEIK	–	–	–	1.37	0.000299	218000	–
A2 (antibody, V domains shown) VH: EVQLVESGGGLVQPGGSLRLSCAASGFTFSSYDMSWVRQAPGKSLEWVATISDAGGYIYYRDSVKGRFTISRDNAKNSLYLQMNSLRDEDTAVYICARELRGRYALDYWGQGTTVTVSS VL: DIQMTQSPSSLSASVGDRVTITCKASQDVTPAVAWYQQKPGKAPKLLIYSTSSRYTGVPSRFSGSGSGTDFTFTISSLQPEDIATYYCQQHYTTPLTFGQGTKLEIK	–	–	–	2.55	0.000475	187000	–
C4 (antibody, V domains shown) VH: EVQLVESGGGLVQPGGSLRLSCAASGFTFSSYDMSWVRQAPGKSLEWVATISDAGGYIYYRDSVKGRFTISRDNAKNSLYLQMNSLRDEDTAVYICAREFGKRYALDSWGQGTTVTVSS VL: DIQMTQSPSSLSASVGDRVTITCKASQDVWPAVAWYQQKPGKAPKLLIYSTSSRYTGVPSRFSGSGSGTDFTFTISSLQPEDIATYYCQQHSTTPLTFGQGTKLEIK	–	–	–	4.5	0.000506	113000	–
A3 (antibody, V domains shown) VH: EVQLVESGGGLVQPGGSLRLSCAASGFTFSSYDMSWVRQAPGKSLEWVATISDAGGYIYYRDSVKGRFTISRDNAKNSLYLQMNSLRDEDTAVYICAREFGKRYALDYWGQGTTVTVSS VL: DIQMTQSPSSLSASVGDRVTITCKASQDVTPAVAWYQQKPGKAPKLLIYSTSSRYTGVPSRFSGSGSGTDFTFTISSLQPEDIATYYCQQHSDAPLTFGQGTKLEIK	–	–	–	1.49	0.000324	218000	–
NLAG3-HDB169-S24 (antibody, human IgG1, V domains shown, Short label tied by its unique suffix) VH: QVQLVQSGAEVKKPGSSVKVSCKASGGTFSSYAISWVRQAPGQGLEWMGGIIPIFGTANYAQKFQGRVTITADESTSTAYMELSSLRSEDTAVYYCTREPHFDYWGQGTLVTVSS VL: EIVMTQSPSSLSASVGDRVTITCQASQDISNYLNWYQQKPGKAPKLLIYDASNLETGVPSRFSGSGSGTEFTLTISSLRPEDFATYFCQQADSFPITFGQGTRLEIKR	6.73	0.012	1.79e+06	–	–	–	–
NLAG3-HDB169-S87 (antibody, human IgG1, V domains shown, Short label tied by its unique suffix) VH: QVQLVQSGAEVKKPGSSVKVSCKASGGTFSSYAISWVRQAPGQGLEWMGGIIPIFGTANYAQKFQGRVTITADESTSTAYMELSSLRSEDTAVYYCAKDIRWYYGMDVWGQGTTVTVSS VL: DIVMTQSPSSVSAFVGDRVTITCRASQGVSSWLAWFQQKPGKAPKLLIYAASTLQSGVPSRFSGRGYGTEFTLTISSLQPEDLATYYCQQVKSFPLTFGGGTKVDIKR	0.00251	2.33e-06	928000	–	–	–	–

Further lines, with some results ahead:

Kd [1] [nM]	koff [1] [s⁻¹]	kon [1] [M⁻¹ s⁻¹]	Kd [2] [nM]	koff [2] [s⁻¹]	kon [2] [M⁻¹ s⁻¹]	Binder	also measured
0.104	8.27e-05	798000	–	–	–	NLAG3-HDB169-S136 (antibody, human IgG1, V domains shown, Short label tied by its unique suffix) VH: QVQLVQSGAEVKKPGSSVKVSCKASGGTFSSYAISWVRQAPGQGLEWMGGIIPIFGTANYAQKFQGRVTITADESTSTAYMELSSLRSEDTAVYYCTRGQDSTWYSSFDYWGQGTLVTVSS VL: AIRMTQSPSSLSASVGDRVTITCRASQSISSYLNWYQQKPGKAPNLLIYAVSTLQSGVPSRFSGSGSGTVFTLTISSLQPEDFATYFCQQGNSFPLTFGGGTKVEIKR	–
0.0443	7.33e-06	165000	–	–	–	NLAG3-HDB323-S20 (antibody, human IgG1, V domains shown, Human IgG1 / kappa (pFUSEss-CHIg-hG1, pFUSE2ss-CLIg-hk); Short label tied by its unique suffix) VH: not shown VL: VIWMTQSPSSLSASVGDRVTITCRASQGVSSYLAWYQQKPGKAPKLLIYAASSLQSGVPSRFSGSGSGTEFTLTISSLQPEDFATYYCQQTNWFPLTFGPGTRLEIKR	–
0.892	0.000553	620000	–	–	–	NLAG3-HDB323-S161 (antibody, human IgG1, V domains shown, Short label tied by its unique suffix) VH: not shown VL: AIQLTQSPSSLSASVGDRVTITCRASEGISGWLAWYQQIPGKAPKLLIYAASSLETGVPSRFSGSGYGTDFTLTISSLQPEDFATYYCQQADSFPFTFGPGTKVEIKR	–
0.815	0.000817	1e+06	–	–	–	NLAG3-HDB169-S128 (antibody, human IgG1, V domains shown, Short label tied by its unique suffix) VH: QVQLVQSGAEVKKPGSSVKVSCKASGGTFSSYAISWVRQAPGQGLEWMGGIIPIFGTANYAQKFQGRVTITADESTSTAYMELSSLRSEDTAVYYCARDAGPVGYYGMDVWGQGTMVTVSS VL: AIQMTQSPSSLSASVGDRVTITCRASQGISSWLAWYQQKPGKAPKLLIYAASSLQSGVPSRFSGSGSGTDFTLTISRLQPEDFATYYCQQAKSFPLTFGGGTKVEIKR	–
1.88	0.00264	1.4e+06	–	–	–	NLAG3-HDB169-S120 (antibody, human IgG1, V domains shown, Short label tied by its unique suffix) VH: QVQLVQSGAEVKKPGSSVKVSCKASGGTFSSYAISWVRQAPGQGLEWMGGIIPIFGTANYAQKFQGRVTITADESTSTAYMELSSLRSEDTAVYYCARSGDRYDFWSGYWGQGTLVTVSS VL: EIVLTQSPSSVSASVGDRVTITCRASRGISSWLAWYQQKPGKAPKLLIYAASTLQSGVPSRFSGSGSGTDFTLTISSLQPEDFATYYCQQAKSFPLTFGGGTKVEIKR	–
